{"source": "patent US20230416345A1", "about": "“NEW TYPE II COLLAGEN BINDING PROTEINS” (Navigo Proteins GmbH, priority 2020, published 2023)", "molecules": {"B1": {"name": "CID 212000: dimer of SEQ ID NO: 2 (dimer with linker between the monomers) (protein)", "chain": "IAAKFDEAQSAADSEILHLPNLTEQQRHYFRRWLSDDPSVSTHILTQAQHLNDDQAPKGGGGSGGGGSGGGGSGGGGSIAAKFDEAQSAADSEILHLPNLTEQQRHYFRRWLSDDPSVSTHILTQAQHLNDDQAPKSAWSHPQFEK", "modifications": "Col2 binding protein (dimer of 211261) (CID212000)"}}, "key": {"[1]": {"target": "T1, human collagen type V (h Col V) (Homo sapiens, UniProt P05997+P20908)", "T1 construct": "purchased Abcam ab7537", "T1 sequence (P20908 38-1605 limits assumed)": "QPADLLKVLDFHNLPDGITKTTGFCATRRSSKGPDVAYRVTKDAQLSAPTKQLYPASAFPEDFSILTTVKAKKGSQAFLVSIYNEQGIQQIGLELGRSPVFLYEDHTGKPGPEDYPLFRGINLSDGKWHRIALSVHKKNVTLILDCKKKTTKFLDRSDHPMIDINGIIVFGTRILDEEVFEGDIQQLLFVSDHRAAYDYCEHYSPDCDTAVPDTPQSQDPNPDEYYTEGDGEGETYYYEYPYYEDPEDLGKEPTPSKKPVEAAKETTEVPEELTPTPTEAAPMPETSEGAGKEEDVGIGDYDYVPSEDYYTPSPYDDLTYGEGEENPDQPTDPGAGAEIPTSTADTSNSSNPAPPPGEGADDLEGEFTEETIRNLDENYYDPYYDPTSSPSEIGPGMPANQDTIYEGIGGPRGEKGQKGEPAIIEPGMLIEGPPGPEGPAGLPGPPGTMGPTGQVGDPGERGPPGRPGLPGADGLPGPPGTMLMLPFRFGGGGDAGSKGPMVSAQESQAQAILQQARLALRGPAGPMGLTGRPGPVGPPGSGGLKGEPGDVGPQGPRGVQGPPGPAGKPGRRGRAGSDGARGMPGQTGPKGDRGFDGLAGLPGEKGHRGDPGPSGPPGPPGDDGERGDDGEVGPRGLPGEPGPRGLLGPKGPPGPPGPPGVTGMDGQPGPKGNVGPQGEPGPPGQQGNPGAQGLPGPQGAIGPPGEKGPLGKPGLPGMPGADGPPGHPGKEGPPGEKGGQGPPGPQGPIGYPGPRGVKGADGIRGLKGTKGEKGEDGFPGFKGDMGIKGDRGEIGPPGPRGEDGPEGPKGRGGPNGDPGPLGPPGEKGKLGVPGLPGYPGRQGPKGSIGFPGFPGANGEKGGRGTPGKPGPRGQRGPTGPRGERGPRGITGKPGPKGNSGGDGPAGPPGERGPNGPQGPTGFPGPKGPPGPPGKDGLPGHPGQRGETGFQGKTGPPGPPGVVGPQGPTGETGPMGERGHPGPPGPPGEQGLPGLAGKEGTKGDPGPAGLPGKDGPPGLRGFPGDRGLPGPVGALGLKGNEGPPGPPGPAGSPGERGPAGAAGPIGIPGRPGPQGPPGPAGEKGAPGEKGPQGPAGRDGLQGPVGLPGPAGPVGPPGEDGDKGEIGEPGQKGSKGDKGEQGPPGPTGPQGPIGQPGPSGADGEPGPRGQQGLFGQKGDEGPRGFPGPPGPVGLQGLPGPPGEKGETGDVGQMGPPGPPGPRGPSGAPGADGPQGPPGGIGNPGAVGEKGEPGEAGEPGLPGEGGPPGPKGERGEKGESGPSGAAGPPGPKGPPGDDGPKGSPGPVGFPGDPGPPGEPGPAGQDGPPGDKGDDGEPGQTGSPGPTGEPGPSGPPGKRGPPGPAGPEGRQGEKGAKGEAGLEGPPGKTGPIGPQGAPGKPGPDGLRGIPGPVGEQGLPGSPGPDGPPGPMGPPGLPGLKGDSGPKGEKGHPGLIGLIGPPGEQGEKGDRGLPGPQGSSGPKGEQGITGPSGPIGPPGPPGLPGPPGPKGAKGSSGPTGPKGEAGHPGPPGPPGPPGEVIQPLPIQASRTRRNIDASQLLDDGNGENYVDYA", "T1 sequence (P05997 27-1229 limits assumed)": "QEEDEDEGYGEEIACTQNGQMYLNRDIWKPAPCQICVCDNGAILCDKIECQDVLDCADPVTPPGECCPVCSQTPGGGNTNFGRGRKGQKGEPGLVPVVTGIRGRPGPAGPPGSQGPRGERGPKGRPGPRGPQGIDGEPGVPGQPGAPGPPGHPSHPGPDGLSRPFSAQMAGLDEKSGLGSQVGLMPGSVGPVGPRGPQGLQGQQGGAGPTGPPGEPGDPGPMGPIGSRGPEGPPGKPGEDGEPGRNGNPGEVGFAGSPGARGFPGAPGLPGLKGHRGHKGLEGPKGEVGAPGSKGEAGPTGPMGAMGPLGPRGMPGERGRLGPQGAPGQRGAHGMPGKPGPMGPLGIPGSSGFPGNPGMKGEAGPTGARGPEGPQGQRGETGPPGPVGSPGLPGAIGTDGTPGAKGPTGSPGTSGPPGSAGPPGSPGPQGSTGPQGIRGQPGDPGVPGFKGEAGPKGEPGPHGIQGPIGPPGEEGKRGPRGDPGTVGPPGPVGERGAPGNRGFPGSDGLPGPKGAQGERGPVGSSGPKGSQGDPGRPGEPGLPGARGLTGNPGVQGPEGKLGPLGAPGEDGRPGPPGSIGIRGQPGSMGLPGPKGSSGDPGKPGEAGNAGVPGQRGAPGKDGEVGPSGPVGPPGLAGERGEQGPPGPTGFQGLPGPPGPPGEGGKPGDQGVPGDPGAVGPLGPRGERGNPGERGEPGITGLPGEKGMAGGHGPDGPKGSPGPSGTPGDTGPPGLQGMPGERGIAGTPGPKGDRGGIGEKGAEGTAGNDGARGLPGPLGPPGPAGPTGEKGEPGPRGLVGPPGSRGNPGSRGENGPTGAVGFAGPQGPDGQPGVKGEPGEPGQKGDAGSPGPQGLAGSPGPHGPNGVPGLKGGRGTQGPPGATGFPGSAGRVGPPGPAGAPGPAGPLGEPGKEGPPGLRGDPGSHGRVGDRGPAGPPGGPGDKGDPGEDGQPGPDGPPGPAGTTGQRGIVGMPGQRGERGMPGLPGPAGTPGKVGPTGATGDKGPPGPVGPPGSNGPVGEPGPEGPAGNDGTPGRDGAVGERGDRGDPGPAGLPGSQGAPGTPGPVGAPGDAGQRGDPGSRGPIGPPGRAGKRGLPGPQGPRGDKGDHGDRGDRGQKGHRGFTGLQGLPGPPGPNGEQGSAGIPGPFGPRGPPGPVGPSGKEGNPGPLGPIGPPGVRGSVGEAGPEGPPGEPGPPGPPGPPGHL", "experiment": "ELISA specificity vs human collagen type V", "assay_type": "binding", "procedure": "High binding plates (Greiner, 781061) were immobilized with 2.5 μg/ml recombinant human collagen type II (h Col II, Chondrex, CHX-20051), rabbit collagen type II (rbCol II, prepared from rabbit eyes), porcine collagen type II (p Col II, prepared from porcine eyes), human collagen type I, (h Col I, Sigma, C5483-1MG), human collagen type V (h Col V, Abcam, ab7537), human collagen type III (h Col Ill, Abcam, ab7535) and 67B89 (domain of fibronectin, produced in E. coli) respectively over night at 4° C. ELISA-plates were washed 3 times with PBST (PBS+ 0.1% Tween) and blocked with 3% BSA/0.5% Tween/PBS 2 h at RT. After washing with PBST, dilution series of 1.1 μM to 7×10^−4 nM of dimers (CID 211999, CID 212000), dilution series of 100 nM to 7×10^−6 nM of tetramers (CID 212001 and CID 212704) and dilution series of 10 μM to 2 nM of dimer (CID 212705) were incubated on ELISA-plates 1 h at rt. Plates were washed with PBST and incubated with biotinylated anti-StrepTag-ab (Antikörper-online, ABIN1573895) with a dilution of 1:10.000 for 1 h at rt. The binding was visualized with a-rabbit-IgG-HRP (Sigma, A9169) with a dilution of 1:10.000 and as substrate TMB Plus von KEM EN TEC Diagnostic, Kat-Nr. 4395."}, "[2]": {"target": "T2, hCol2 (human Type II collagen) (Homo sapiens, UniProt P02458)", "T2 construct": "purchased Chondrex", "T2 sequence (P02458 182-1241)": "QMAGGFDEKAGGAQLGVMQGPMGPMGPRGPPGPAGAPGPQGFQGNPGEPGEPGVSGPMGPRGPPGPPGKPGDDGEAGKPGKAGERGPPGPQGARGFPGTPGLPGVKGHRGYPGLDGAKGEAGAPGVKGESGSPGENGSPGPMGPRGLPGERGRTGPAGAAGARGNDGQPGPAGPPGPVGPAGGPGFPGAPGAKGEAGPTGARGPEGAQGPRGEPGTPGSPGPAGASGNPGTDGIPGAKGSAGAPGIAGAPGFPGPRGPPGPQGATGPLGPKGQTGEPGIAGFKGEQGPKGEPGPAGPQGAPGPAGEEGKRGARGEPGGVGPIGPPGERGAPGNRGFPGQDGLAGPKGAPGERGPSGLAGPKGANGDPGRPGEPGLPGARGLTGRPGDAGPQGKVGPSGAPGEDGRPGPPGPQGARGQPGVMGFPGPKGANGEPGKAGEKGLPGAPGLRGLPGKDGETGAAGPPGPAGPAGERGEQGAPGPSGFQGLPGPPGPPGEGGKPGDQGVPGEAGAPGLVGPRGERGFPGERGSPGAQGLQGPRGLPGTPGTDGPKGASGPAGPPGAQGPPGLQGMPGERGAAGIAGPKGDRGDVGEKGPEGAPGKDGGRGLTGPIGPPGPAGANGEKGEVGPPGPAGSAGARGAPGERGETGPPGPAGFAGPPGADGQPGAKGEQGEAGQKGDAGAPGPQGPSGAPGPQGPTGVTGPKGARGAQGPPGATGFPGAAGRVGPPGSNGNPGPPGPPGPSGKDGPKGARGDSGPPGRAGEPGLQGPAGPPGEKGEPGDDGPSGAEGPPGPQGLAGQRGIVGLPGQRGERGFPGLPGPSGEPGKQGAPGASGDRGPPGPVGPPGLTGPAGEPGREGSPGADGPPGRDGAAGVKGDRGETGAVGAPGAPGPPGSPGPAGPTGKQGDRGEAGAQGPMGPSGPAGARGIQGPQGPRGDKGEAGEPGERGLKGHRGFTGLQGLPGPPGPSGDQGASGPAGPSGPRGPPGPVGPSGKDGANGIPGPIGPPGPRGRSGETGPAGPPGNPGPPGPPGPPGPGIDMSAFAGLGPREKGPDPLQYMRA", "experiment": "Binding analysis by SPR (Biacore 3000) vs human type II collagen", "conditions": "dimers or tetramers; Langmuir 1:1 model", "procedure": "(§1) Proteins with affinity tag were purified by affinity chromatography and size exclusion. After affinity chromatography purification using Strep-Tactin Superflow high capacity cartridges (IBA Lifesciences) a size exclusion chromatography (SEC) was performed using an Äkta system and a Superdex™ 200 HiLoad 16/600 column (Cytiva). Fused variants with Aflibercept were purified via MabSelect SuRe (Cytiva) affinity chromatography followed by a size exclusion chromatography (SEC) using an Äkta system and a Superdex™ 200 HiLoad 16/600 column (Cytiva). All chromatography processing steps were carried out on AKTA systems using matrices from Cytiva. Homogenous species of all purified ligands were obtained; no aggregation was detected. Following SOS-PAGE analysis positive fractions were pooled and their protein concentrations were measured. Further analysis included SOS-PAGE, SE-HPLC and RP-HPLC. Protein concentrations were determined by absorbance measurement at 280 nm using the molar absorbent coefficient. Reversed phase chromatography (RP-HPLC) was performed using a Dionex HPLC system and a PLRP-S (5 μm, 300 Å) column (Agilent). Analytic size exclusion chromatography (SE-HPLC) was performed using a Dionex HPLC system and a Superdex200 increase 5/150 GL (Cytiva). Binding of Collagen II was evaluated by SPR measurements using a Biacore 3000 system. Purified Collagen II was obtained from Chondrex.inc and VEGF-165 was obtained from Millipore. Targets were immobilized on a CM5-Sensor via NHS/EDC chemistry (immobilization level ˜1000 RU). Binding molecules were injected at different concentration and affinity was calculated by langmuir 1:1 binding model.\nThe purified proteins were immobilized on a CM-5 sensor chip (GE Healthcare) using NHS/EDC after PDEA activation resulting in 110-140 RU with a Biacore 3000 system (GE Healthcare). The chip was equilibrated with SPR running buffer (PBS 0.05% Tween pH 7.3). Upon binding, target analyte was accumulated on the surface increasing the refractive index. This change in the refractive index was measured in real time and plotted as response or resonance units versus time. The analytes were applied to the chip in serial dilutions with a flow rate of 30 μl/min. The association was performed for 120 seconds and the dissociation for 120 seconds. After each run, the chip surface was regenerated with 30 μl regeneration buffer (10 mM glycine pH 2.0) and equilibrated with running buffer.\nBinding studies were carried out by the use of the BIAcore 3000 (GE Healthcare); data evaluation was operated via the BIAevaluation 3.0 software, provided by the manufacturer, using the Langmuir 1:1 model (RI=0). Evaluated dissociation constants (KD) were standardized against the immobilized protein and indicated. Shown is the change in refractive index measured in real time and plotted as response or resonance unit [RU] versus time [sec]."}, "[3]": {"experiment": "Soluble expression in Escherichia coli BL21(DE3)", "assay_type": "physicochemical", "conditions": "expression in E. coli BL21(DE3)", "procedure": "Variants with affinity tag were expressed in Escherichia coli BL21(DE3) using a low copy plasmid system under regulation of a T7 promoter. Proteins were produced in soluble form after induction by lactose included in the medium (autoinduction medium). BL21 (DE3) competent cells were transformed with the expression plasmid, spread onto selective agar plates (kanamycin) and incubated overnight at 37° C. Precultures were inoculated from single colony in 3 ml 2×YT medium supplemented with 50 μg/ml kanamycin and cultured for 6 hours at 37° C. at 200 rpm in a conventional orbital shaker in culture tubes. […] Cultures were transferred to an orbital shaker and incubated at 30° C. and 200 rpm. Recombinant protein expression was induced by metabolizing glucose and subsequently allowing lactose to enter the cells. Cells were grown overnight for approx. 17 hours to reach a final OD600 of about 2-4. Before the harvest, the OD600 was measured, samples adjusted to 0.6/OD600 were withdrawn, pelleted and frozen at −20° C. To collect biomass cells were centrifuged at 12000×g for 15 min at 22° C. Pellets were weighed (wet weight). Cells were stored at −20° C. before processing.\nas §1"}}}
{"molecule": "B1", "values": [{"measurement": "binding to type V collagen (ELISA)", "setting": "[1]", "result": "No unspecific binding"}, {"measurement": "Affinity [SPR] vs hCol2", "setting": "[2]", "result": 180, "unit": "nM"}, {"measurement": "Solubility Soluble expression", "setting": "[3]", "result": 100, "unit": "%"}]}
